Test results taken from the nanobody polyreactivity screen of Harvey et al. (2022).

assay: yeast display, Sf9 membrane polyspecificity reagent, FACS + sequencing; frameworks hold sequencing errors
Procedure, shortened: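 Polyreactivity labels are assigned by the sorting gate from which each nanobody was recovered. The gates were low and high (top ~1%), set on anti-HA fluorescence for expression and streptavidin fluorescence for reagent binding. Before sorting, galactose-induced (36–48 hours) yeast display cells were stained for 1 hour at 4 °C with 10% biotinylated, detergent-solubilized Sf9 membrane reagent.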

| Sequence | polyreactivity (PSR sort gate) |
| --- | --- |
| QVQLVESGGGLVQAGGSLRLSCAASGSIFTPNAMGWYRQAPGKERELVAAISSSSDRTSYADSVKGRFTISRDNAKYTVYLQMNSLKPEDTAVYYCAAYSQKRYYWGQGTQVTVSS | high polyreactivity |
| QVQLVESGGGLVQAGGSLRLSCAASGSIFTPYAMGWYRQAPGKERELVAAITQTGGITYYADSVKGRFTISRDNAKNTVYLQMNSLKPEDTAVYYCAADDYNPFSYSYGLEYWGQGTQVTVSS | low polyreactivity |
| QVQLVESGGGLVQAGGSLRLSCAASGSIFTPYAMVWYRQAPGQERELVAAITSGGSTYYADSVKGRFTISRDNAKNTVYLQMNSLKPEDTAVYYCARRVWNYLRRSWYDYWGQGTQVTVSS | high polyreactivity |
| QVQLVESGGGLVQAGGSLRLSCAASGSIFTRNTMGWYRQAPGKDRELVAAITWIGGRTYYADSVKGRFTISRDNAKNTVYLQMNSLKPEDTAVYYCAARSDPYWWQKYYYWGQGTQVTVSS | high polyreactivity |
| QVQLVESGGGLVQAGGSLRLSCAASGSIFTRYAMGWYRQAPGKERELVATISFIGSSTYYADSVKGRFTISRDNAKNTVYLQMNSLKPEDTAVYSCAATGYARQYEYRYDYWGQGTQVTVSS | low polyreactivity |
| QVQLVESGGGLVQAGGSLRLSCAASGSIFTRYAMGWYRQSPGKERELVAALSYRGGRTYYADSVKGRFTISRDNAKNTVYLQMNSLKPVDTAVYYCAAGYRFSYSPNEFYYWGQGTQVTVSS | high polyreactivity |
| QVQLVESGGGLVQAGGSLRLSCAASGSIFTSYAMGWYRQAPGTERELVAVITSSGSSTYYADSVKGRFTISRDNAKNTVYLQMNSMKPEDTAVYYCYGYYDAYGYWGQGTQVTVSS | low polyreactivity |
| QVQLVESGGGLVQAGGSLRLSCAASGSIFTSYVMGWYRQAPGKERELVAAINSGGRTYYADSVKGRFTISRDNAKNTVYLQMNSLKPEDTAVYYCATDLLYYQYYSEYDYWGQGTQVTVSS | high polyreactivity |
| QVQLVESGGGLVQAGGSLRLSCAASGSIFTTNAMGWYRQAPGKERELVAAISSRGTSTYYADSVKGRFTISRDNAKNTVYLQMNSLKPEDTAVYYCAADYVYASRHFEYWGQGTQVTVSS | high polyreactivity |
| QVQLVESGGGLVQAGGSLRLSCAASGSIFTTYAMGWYRQAPGKERELVATITSSDSTNYADSVKGRFTISRDNAKNTVYLQMNSLKPEDTAVYYCNAGGDRTVSVAWYSADDYWGQGTQVTVSS | low polyreactivity |
| QVQLVESGGGLVQAGGSLRLSCAASGSIFTTYTMGWYRQAPGKERELVAAITSSSGSTYYADSVKGRFTISRDHAKNTVYLQMNSLKPEDTAVYYCNATYSAAVDYWGQGTQVTVSS | low polyreactivity |
| QVQLVESGGGLVQAGGSLRLSCAASGSIFTVYAMGWYRQAPGKERELVATITGSDGRTDYADSVKGRFTISRDNAKNTVYLQMNSLKPEDTAVYYCAAQVFKWKYRQSLWFDQGYYWGQGTQVTVSS | low polyreactivity |
| QVQLVESGGGLVQAGGSLRLSCAASGSIFTWYTMGWYRQAPGKERELVAAISWSGGRTYYADSVKGRFTISRDNAKHTVYLQMNSLKPEDTAVYYCAASAYGRPPFDYWGQGTQVTVSS | high polyreactivity |
| QVQLVESGGGLVQAGGSLRLSCAASGSIFTYNAMGWYRPAPGKERELVASITWSGGSTYYADSVKGRFTISRDNAKNTVSLQMNSLKPEDTAVYYCAAKRVHGATGYWGQGTQVTVSS | high polyreactivity |
| QVQLVESGGGLVQAGGSLRLSCAASGSIFTYTMGGYRQAPGKERELVATISRTGSTNYADSVKGRFTISRDNAKNTVYLQMNSLKPEDTAVYYCSKGAYITGAWPFYELITPYAYWGQGTQVTVSS | high polyreactivity |
| QVQLVESGGGLVQAGGSLRLSCAASGSIFTYYAMGWYRKAPGKERELVAAITKSGGRTYYAHSVMGRFTISRDNAKNTVYLQMNRLKPEDTAVYYCAALYGRYQTSYQFDYWGQGTQVTVSS | high polyreactivity |
| QVQLVESGGGLVQAGGSLRLSCAASGSIFTYYAMGWYRQAPGKEREFVAAISRRGGSTYYADSVKGRFTISRDNAKNTVYLQMNSLKPEDTAVYFCAADRWTRTLVKVIGRYYYCGQGTQVTVSS | high polyreactivity |
| QVQLVESGGGLVQAGGSLRLSCAASGSIFTYYAMGWYRQAPGKERELVAAINSGGRTNYADSVKGRFTISRDNAKNTVYLQMNSLKPEDTAVYYCAKYGVLQYGYWGQGTQVTVSS | low polyreactivity |
| QVQLVESGGGLVQAGGSLRLSCAASGSIFTYYAMGWYRQAPGKERELVAAISSDGGRTFYADSVKGRFTISRDNAKNTVYLQMNSLKPEDTAVYYCAAETNRFPGYGYWGQGTQVTVSA | low polyreactivity |
| QVQLVESGGGLVQAGGSLRLSCAASGSIFTYYTMGWYRPAPGKERELVAAIRWSAGRTYYADSVKGRFTISRDNAKNTVYLQMNSLKPEDTAVYYCAAAERLRHGLKFDYWGQGTQVTVSS | high polyreactivity |
| QVQLVESGGGLVQAGGSLRLSCAASGSIFTYYVMGWYRQAPGKERELVAAITISGGSTYYADSVKGRFTISRDNAKITVYLQMKSLKPEDTAVYYCAAEEVYYEADGFQYSYDYWGQGTLVTVSS | high polyreactivity |
| QVQLVESGGGLVQAGGSLRLSCAASGSIFVANAMGWYRQAPGKERELVAAISGSGDRTRYADSVKGRFTISRDNAKNTVYLQMNSLKPEDTAVYYCNARYYASGNLYNYWGQGTQVTVSS | high polyreactivity |

| Sequence | polyreactivity (PSR sort gate) |
| --- | --- |
| QVQLVESGGGLVQAGGSLRLSCAASGSIFVANAMGWYRQAPVKERELVAAISRRGGSTYYADSVKGRFTISRDNAKNTVYLQMNSLKPEDTAVYYCAAEDVYEYDYWGQGTQVTVSS | high polyreactivity |
| QVQLVESGGGLVQAGGSLRLSCAASGSIFVDTAMGWYRQAPGKERELVAAINWSGGSTYYADSVKGRFTISRDNAQNTVYLQMNSLKPEDTAVYYCYAARPGQTWDEHSWYEYWGQGTQVTVSS | low polyreactivity |
| QVQLVESGGGLVQAGGSLRLSCAASGSIFVFNAMGWYRQAPGKERELVAAISSSGGSTYYADSVKGRFTISRDNAKNTVYLQMNSLKPEDTAVYYCNKRLYYQRWPAAAREYWGQGTQVTVSS | high polyreactivity |
| QVQLVESGGGLVQAGGSLRLSCAASGSIFVFYDMGWYRQAPGKERELVATISSGGGGTYYTDSVKGRFTISRDNAKNTVYLQLNSLKPEDTAVYYCAAEGDKYGKGYGYWGQGTQVTVSS | low polyreactivity |
| QVQLVESGGGLVQAGGSLRLSCAASGSIFVFYDMGWYRQAPGKERELVATISSGGGGTYYTDSVKGRFTISRDNAKNTVYLQMNSLKPEDTAVYYCAAEGDKYGKGYGYWGQGTQVTVSS | low polyreactivity |
| QVQLVESGGGLVQAGGSLRLSCAASGSIFVGNAMGWYRQAPGKERELVATITSGCSTYYADSVKGRFTISRDNAMNTVYLQMNSLKPEVTAVYYCAADYDFSKFDYDYWGQGTQVTVSS | low polyreactivity |
| QVQLVESGGGLVQAGGSLRLSCAASGSIFVGNAMGWYRQAPGKERELVSTISRGARTKYADSVKGRFTISRDNAKNTVYLQMNSLKPEDTAVYYCNKVSSYYVFYTPYYSWGQGTQVTVSS | low polyreactivity |
| QVQLVESGGGLVQAGGSLRLSCAASGSIFVGYAMGWYRQAPGKERELVAAINSSGDRTFYADSVKGRFTISRDNAKNTVYLQMNSLKREDTAVYYCNRVYVRAGVSVAYNYWGQGTQVTVSS | high polyreactivity |
| QVQLVESGGGLVQAGGSLRLSCAASGSIFVGYAMGWYRQAPGKERELVAAIRWSGGSTYYADSVKGRFTISRDNAKNTVYLQMNSLKPEDTAVYYCAKYFPAGYYYWGQGTQVTVSS | low polyreactivity |
| QVQLVESGGGLVQAGGSLRLSCAASGSIFVGYVMGWYRQAPGKERELVARIRWGGGRTYYADSVKGRFTISRDNAKNTVYLQMNSLKPEDTAVYYCNARYSYHSVGYWGQGTQVTVSS | high polyreactivity |
| QVQLVESGGGLVQAGGSLRLSCAASGSIFVINAMGWYRQAPGKERELVAAIDWSGDSTYYADSVKGRFTISRDNAKNTVYLQMNSLKPEDTAVYYCAADLDSRGTYGRYEYWGQGTQVTVSS | low polyreactivity |
| QVQLVESGGGLVQAGGSLRLSCAASGSIFVIYAMGWYRQAPGKERELVAAITDSATTNYADSVKGRFTISRDNAKNTVYLQMNSLKPEDTAVYYCAAEYSSYPTAWSTYEFDYWGQGTQVTVSS | low polyreactivity |
| QVQLVESGGGLVQAGGSLRLSCAASGSIFVIYTMGWYRQAPGKERELVAVITWSTGNTYYADSVKGRFTISRDNAKNTVYLQMNSLKPEDTAVYYCAARTTSRWRSCAYYYWGQGTQVTVSS | high polyreactivity |
| QVQLVESGGGLVQAGGSLRLSCAASGSIFVKNAMGWYRQAPGKERELVAAISRSGGSTYYADSVKGRFTISRDNAKYTVYLQMNSLKPEDTAVYYCNAYGSYWDFDEWGQGTQVTVSS | high polyreactivity |
| QVQLVESGGGLVQAGGSLRLSCAASGSIFVKNAMGWYRQAPGKERELVATISRRGGSTYYADSVKGRFTISRDNAKNTVYLQMNSLKPEDTAVYYCNRLGTTVSLEYYYWGQGTQVTVSS | high polyreactivity |
| QVQLVESGGGLVQAGGSLRLSCAASGSIFVKYAMGWYRQATGKERELVASITGRGGSTYYADSVKGRFTISRDNAKNTVYFQMNSLIPEDTAVYYCAARVASRHGWHNYWGQGTQVTVSS | high polyreactivity |
| QVQLVESGGGLVQAGGSLRLSCAASGSIFVLYAMGLYRQAPGTERELVAAITTGGGTNYADSVKGRFTISRDNAKNTVYLQINSLKPEDTAVYYCAADTGWYDDWTHDYWGQGTQVTVSS | low polyreactivity |
| QVQLVESGGGLVQAGGSLRLSCAASGSIFVLYAMGWSRQAPGKERELVAAITTGGGTNYADSVKGRFTISRDNAKNTVYLQMNSLKPEDTAVYYCAAADSTWFDWGNYWYYYWGQGTQVTVSS | low polyreactivity |
| QVQLVESGGGLVQAGGSLRLSCAASGSIFVNNAMGWYRQAHGKERELVAAISGSGSSTHYAHSVKGRFTISRDNAKNTVYLQMNSLKPEDTAVYYCNRGRRDLDFNYWGQGTQVTVSS | low polyreactivity |
| QVQLVESGGGLVQAGGSLRLSCAASGSIFVNYAMGWSRQAPGKERELVAAISRDGGRTYYADSVKGRFTISRDNAKNTVYLQMNSLKPEDTAVYYCNAVIPSTAYYRYGYWGQGTQVTVSS | high polyreactivity |
| QVQLVESGGGLVQAGGSLRLSCAASGSIFVNYAMGWYRQAPGKERELVAAISWRGGITYADSVKGRFTISRDNAKNTVYLQLNSLKPEDTAVYYCARRGYGAGPSYRLGDYWGQGTQVTVSS | low polyreactivity |
